Assay results taken from US20200268847A1, “Methods of Treating Newly Diagnosed Multiple Myeloma with a Combination of An Antibody that Specifically Binds CD38, Lenalidomide and Dexamethasone” (Janssen Biotech, Inc., priority 2019, published 2020).

Key:
[1] = test system: minimal residual disease (clonal multiple myeloma cells in bone marrow); test: MAIA: minimal residual disease in bone marrow aspirates by next-generation sequencing (clonoSEQ version 2.0); format: in vivo, human; conditions: threshold 1 tumor cell per 10^5 white cells
Description: MRD status may be assessed from bone marrow aspirate samples using for example next generation sequencing (NGS) of immunoglobulin heavy and light chains. The updated, analytically validated version of the clonoSEQ® Assay (Version 2) by Adaptive Biotechnologies may be used for the detection, quantification and analysis of MRD.
A central laboratory performed disease evaluations (serum and 24-hour urine samples) every 28 days for 2 years, and then every 8 weeks until disease progression. For patients with positive serum immunofixation and daratumumab (DARZALEX®) interference, complete responses were confirmed using reflex assays (McCudden et al., Clin Chem Lab Med 54:1095-1104, 2016). Minimal residual disease was evaluated by next-generation sequencing assays (clonoSEQ® version 2.0; Adaptive Biotechnologies) on bone marrow aspirates collected at baseline, at time of suspected complete or stringent complete response (undetectable M-protein on two consecutive serum and urine electrophoresis tests), and at 12, 18, 24, and 30 months post-first dose in patients who achieved a complete response or better.

[2] = test system: transplant-ineligible newly diagnosed multiple myeloma (NDMM); test: MAIA subgroup analysis by age (<75 vs ≥75 y): efficacy; format: in vivo, human; conditions: for PFS HR (95% CI): DRd vs Rd
Procedure: (§1) To examine the impact of age on the efficacy and safety of D-Rd vs Rd in this patient population, a subgroup analysis was conducted within patients <75 and >75 y of age.
(§2) Transplant-ineligible NDMM patients were randomized 1:1 to Rd±DARA; stratification was based on age (<75 vs >75 years), ISS (I, II, III), and region (North America vs Other). In standard Rd dosing, patients received 28-day cycles of lenalidomide 25 mg PO QD on Days 1-21 and dexamethasone 40 mg PO on Days 1, 8, 15 and 22 until progression. A portion of patients received 10 mg lenalidomide and 20 mg dexamethasone at the beginning of the treatment. In the DRd arm, patients received daratumumab (DARZALEX®) 16 mg/kg IV QW for Cycles 1-2, Q2W for Cycles 3-6, and Q4W thereafter until progression. PFS was the primary endpoint.

[3] = test system: transplant-ineligible NDMM patients; test: MAIA subgroup analysis by age (<75 vs >75 y): safety (TEAEs, discontinuations); format: in vivo, human
Procedure: as §1, §2

[4] = test system: patients with newly diagnosed multiple myeloma ineligible for HDC and ASCT; conditions: in vivo
Description: (§3) Safety will be measured by adverse events, laboratory test results, ECGs, vital sign measurements, physical examination findings, and assessment of ECOG performance status score.
(§4) Safety analyses included adverse event assessment graded in severity according to NCI-CTCAE version 4, electrocardiograms, clinical laboratory testing, physical examinations, and vital signs.
(§5) The safety population included patients who received any dose of trial treatment.

[5] = test system: patients with newly diagnosed multiple myeloma ineligible for HDC and ASCT; test: MAIA: safety, adverse events graded by NCI-CTCAE version 4, treatment discontinuations
Description: as §3, §4, §5

[6] = grade 3/4 TEAEs, <75 y patients
[7] = grade 3/4 TEAEs, >75 y patients
[8] = Grade 3 or 4, safety population

## daratumumab (DARZALEX®) group: daratumumab (DARZALEX®) in combination with lenalidomide and dexamethasone
[1]; ITT population
  Negative status for minimal residual disease: 89 (24.2) no. (%)
[1]
  negative status for minimal residual disease, times as high as in the control group: more than 3 times
[1]; ITT, P<0.0001
  patients minimal residual disease-negative: 24.2%
[2]; <75 y
  30-mo PFS: 75%
  MRD-negative rate (10^−5): 28%
  ORR: 95%
  ≥CR: 52%
  ≥VGPR: 81%
[2]; <75 y, listed as D-Rd
  PFS HR (95% CI): 0.50
[2]; <75 y, listed as DRd
  PFS HR (95% CI): 0.50 (0.35-0.71)
[2]; <75 y, median follow-up 28 months, listed as D-Rd
  PFS Median: not reached
[2]; ≥75 y
  30-mo PFS: 66%
  MRD-negative rate (10^−5): 19%
  ORR: 90%
  ≥CR: 41%
  ≥VGPR: 77%
[2]; ≥75 y, listed as D-Rd
  PFS HR (95% CI): 0.63
[2]; ≥75 y, listed as DRd
  PFS HR (95% CI): 0.63 (0.44-0.92)
[3]; <75 y
  discontinuation rate due to infections: 1%
  discontinued lenalidomide due to TEAEs: 15%
  discontinued treatment due to TEAEs: 5%
[3]; >75 y
  discontinuation rate due to infections: 0%
  discontinued lenalidomide due to TEAEs: 29%
  discontinued treatment due to TEAEs: 10%
[3]; [6]
  anemia: 9%
  leukopenia: 10%
  lymphopenia: 12%
  neutropenia: 43%
  pneumonia: 13%
[3]; [7]
  anemia: 16%
  leukopenia: 12%
  lymphopenia: 19%
  neutropenia: 60%
  pneumonia: 15%
  thrombocytopenia: 8%
[4]
  discontinuation of trial treatment due to infections: 0.5%
  rate of any-grade infections: 86.3%
  rate of grade 3 or 4 infections: 32.1%
[5]
  patients with adverse events leading to discontinuation of trial treatment: 7.1%
[5]; % of patients
  adverse events leading to death: 6.9%
  invasive second primary malignancies: 3.3%
  pneumonia as adverse event leading to death: 0.5%
  pneumonia as serious adverse event: 13.2%
  serious adverse events: 62.9%
[5]; Any Grade, safety population
  Any infusion-related reaction: 149 (40.9) number of patients (percent)
  Asthenia: 117 (32.1) number of patients (percent)
  Back pain: 123 (33.8) number of patients (percent)
  Constipation: 149 (40.9) number of patients (percent)
  Diarrhea: 207 (56.9) number of patients (percent)
  Fatigue: 147 (40.4) number of patients (percent)
  Invasive second primary malignancy: 12 (3.3) number of patients (percent)
  Nausea: 115 (31.6) number of patients (percent)
  Peripheral edema: 140 (38.5) number of patients (percent)
  Second primary malignancy: 32 (8.8) number of patients (percent)
  anemia: 126 (34.6) number of patients (percent)
  leukopenia: 68 (18.7) number of patients (percent)
  lymphopenia: 66 (18.1) number of patients (percent)
  pneumonia: 82 (22.5) number of patients (percent)
[5]; Any Grade, safety population (N = 364 vs 365)
  neutropenia: 207 (56.9) number of patients (percent)
[5]; [8]
  Any infusion-related reaction: 10 (2.7) number of patients (percent)
  Asthenia: 16 (4.4) number of patients (percent)
  Back pain: 11 (3.0) number of patients (percent)
  Constipation: 6 (1.6) number of patients (percent)
  Diarrhea: 24 (6.6) number of patients (percent)
  Fatigue: 29 (8.0) number of patients (percent)
  Nausea: 5 (1.4) number of patients (percent)
  Peripheral edema: 7 (1.9) number of patients (percent)
  anemia: 43 (11.8) number of patients (percent)
  leukopenia: 40 (11.0) number of patients (percent)
  lymphopenia: 55 (15.1) number of patients (percent)
  neutropenia: 182 (50.0) number of patients (percent)
  pneumonia: 50 (13.7) number of patients (percent)
[5]; at clinical cutoff date Sep. 24, 2018
  treatment discontinued due to adverse events: 7.4%
[5]; grade 3/4 adverse events
  anemia: 11.8%
  leukopenia: 11.0%
  lymphopenia: 15.1%
  neutropenia: 50.0%
  pneumonia: 13.7%
[5]; in vivo
  discontinued treatment due to neutropenia: no patients
  invasive second primary malignancies: hematologic malignancies: 0.5%
  invasive second primary malignancies: solid tumors: 2.7%
  lenalidomide dose delays, reductions, re-escalations, or skipping (combined) due to treatment-emergent adverse events: 77.5%
  lenalidomide dose discontinuations due to treatment-emergent adverse events: 20.9%
